This note sets out measurements from patent publication US20240408138A1 (UNIVERSITY OF CHICAGO, published 2024).

Experiment [1] addresses T1, INCENP N-terminal domain (1-58), His- and Avi-tagged, biotinylated (UniProt Q9NQS7 1-58, biotinylated (Avi-tag, co-expressed E. coli biotin ligase BirA)).
T1 construct: range 1-58; Expressed in E. coli BL21(DE3); also called INC-N; INCENP N-terminal domain (AA 1-58); not shown: His-tag and Avi-tag
T1 sequence (looked up): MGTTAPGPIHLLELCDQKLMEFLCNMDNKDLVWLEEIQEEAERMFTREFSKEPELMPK
As to the kind of experiment: western blot, recombinant INC-N on SDS-PAGE / PVDF, INC-N-16 Fab as primary, anti-human F(ab')2 IgG-HRP secondary. On the procedure:
(§1) Membranes were stained with Ponceau S dye to verify correct transfer of the proteins, were briefly washed with ddH2O and blocked with 4% skimmed milk in TBS-T containing 0.05% Tween20 for 30 min. at RT on the shaker. […] Membranes were washed 3 times with TBS-T and incubated with secondary anti-human FAB′2 specific HRP-conjugated IgG (diluted 1:10,000 in blocking buffer) for 45 minutes at RT, shaking. Membranes were washed again 3× with TBS-T, developed with ECL chemiluminescent substrate and visualized with the Biorad imaging instrument (FIG. 11).

Experiment [2] addresses T2, INCENP FL (Homo sapiens, UniProt Q9NQS7).
T2 construct: full length, denatured on SDS-PAGE and blotted; also called full-length INCENP in HeLa cell lysate
As to the kind of experiment: western blot, HeLa cell lysate on SDS-PAGE / PVDF, INC-N-16 Fab as primary, anti-human F(ab')2 IgG-HRP secondary. The protocol:
as §1
In general terms: In western blotting, separated proteins are transferred to a membrane and probed.

B1: INC-N-16 Fab (Fab, V domains shown)
VH: EVQLVESGGGLVQPGGSLRLSCAASGFNFYSSSIHWVRQAPGKGLEWVASIYPYSGYTSYADSVKGRFTISADTSKNTAYLQMNSLRAEDTAVYYCARAWIYAMDYWGQGTLVTVSS
VL: DIQMTQSPSSLSASVGDRVTITCRASQSVSSAVAWYQQKPGKAPKLLIYSASSLYSGVPSRFSGSRSGTDFTLTISSLQPEDFATYYCQQWDQWLITFGQGTKVEIKR
Take B1: the binding result in experiment [1] and in experiment [2] was “binds” throughout.
